Measurements: article PMC4600075, “Rapid kit-based ^68Ga-labelling and PET imaging with THP-Tyr^3-octreotate: a preliminary comparison with DOTA-Tyr^3-octreotate” (EJNMMI Research, 2015)

Key:
Ex vivo biodistribution = conditions: Balb/c nude, mouse, in vivo, iv, 1 ug, total radioactivity, 1 h PI, ex vivo gamma counting, n = 3, ±SEM
Experimental: (§1) All animal experiments were performed with approval from the Peter MacCallum animal ethics committee. Six- to eight-week-old Balb/c nude mice (Animal Resources Centre, Western Australia) were implanted subcutaneously on the right flank with three million AR42J cells (sourced from ATCC). Once the tumours reached a volume >150 mm^3, the animals (n = 3) were injected intravenously with 23–28 MBq [^68Ga(THP-TATE)] (containing 1 μg of THP-TATE). For blocking studies, animals (n = 3) were coinjected with Tyr^3-octreotate peptide (400 μg). For [^68Ga(DOTATATE)], the animals (n = 3) were injected with 8 MBq of the tracer (containing 1 μg of DOTATATE). At 1 h, the animals were anaesthetised and imaged on a Philips MOSAIC small animal PET scanner. The images were reconstructed using a 3D RAMLA algorithm and tracer uptake determined as described previously. On completion of the scan, animals were euthanised and tissues harvested, weighed and radioactivity counted using a gamma counter (Biomedex). Quantitation of PET images was performed using in-house software (MARVn 3.31). Regions of interest were drawn around tissues of interest and uptake ratio calculated as the maximum pixel intensity in the tumour divided by the average uptake in a mediastinal background region, liver or kidneys, as appropriate.

[1] = tested on: SSTR2-positive AR42J tumours; assay: Ex vivo biodistribution; conditions: 1 h PI, i.v., ex vivo gamma counting; n = 3, ±SEM
Experimental: as §1

[2] = PET scanning, tumour to organ/background ratios; conditions: Balb/c nude, mouse, in vivo, iv, 1 ug, total radioactivity, PET images 1 h PI, ±SEM, n = 3
Experimental: as §1

C[C@@H](O)[C@H](NC(=O)[C@@H]1CSSC[C@H](NC(=O)[C@@H](Cc2ccccc2)NC(=O)CN2CCN(CC(=O)O)CCN(CC(=O)O)CCN(CC(=O)O)CC2)C(=O)N[C@@H](Cc2ccc(O)cc2)C(=O)N[C@H](Cc2c[nH]c3ccccc23)C(=O)N[C@@H](CCCCN)C(=O)N[C@@H]([C@@H](C)O)C(=O)N1)C(=O)O [[^68Ga(DOTATATE)], metal not drawn]
tissue uptake at 1 h (Ex vivo biodistribution; AR42J tumour uptake): 14.4 ± 0.8 %ID/g | tissue uptake at 1 h (Ex vivo biodistribution; kidney retention): 5.6 ± 0.5 %ID/g | blood retention [1]: 0.3 ± 0.1 %ID g^−1 | tissue to tissue ratio at 1 h ([2]; Tumour to kidney ratio, maximum tumour pixel intensity / average organ uptake): 5.7 ± 0.2 | tissue to tissue ratio at 1 h ([2]; Tumour to liver ratio): 27.2 ± 3.9
